Source: patent US20190330332A1, “Hypothermia Ameliorating Agent” (Kao Corporation, priority 2016, published 2019)
Ends that are not written are not given here.

How the values were obtained:
[1] = tested on: leptin receptor deficient C57BLKS/J male mice (db/db mice); test: Chronic decrease in body temperature by GIP and suppression by anti-GIP antibody; type: in vivo, mouse; conditions: intraperitoneal every morning for 28 days, measured 1 to 2 hours after administration
Method: Six-week-old leptin receptor deficient C57BLKS/J male mice (db/db mice, Oriental Yeast Co., Ltd.) were transferred (room temperature: 23° C., humidity: 55±10%, light period: 7:00 to 19:00) and were fed with food and water ad libitum. The food was CE-2 (CLEA Japan, Inc.), and the mice were acclimated for 2 weeks under the above-mentioned environment and were then used for testing.
Mouse-derived GIP (manufactured by AnaSpec, Inc.) was dissolved in physiological saline at a concentration of 500 nM to give a GIP solution. Mouse-derived GIP (manufactured by AnaSpec, Inc.) and the anti-active GIP antibody produced in Production Example 1 were dissolved in physiological saline at concentrations of 500 nM and 0.1 mg/mL, respectively, and the resulting solution was incubated for 1 to 2 hours at room temperature to give a GIP-binding anti-GIP antibody solution.
Physiological saline (control group), the GIP solution (5 nmol/kg body weight) (GIP administration group), or the GIP-binding anti-GIP antibody solution (GIP: 5 nmol/kg body weight, anti-GIP antibody: 1 mg/kg body weight) (GIP+anti-GIP antibody administration group) was intraperitoneally administered to mice (8-week-old) every morning (9:00 to 10:00 a.m.). […]
(§1) The rectal temperature was measured with a digital rectal thermometer (NS-TC10, manufactured by NeuroScience, Inc.). […]

[2] = tested on: C57BLKS/J misty male mice (m/m mice); test: Acute decrease in body temperature (rectal temperature) by GIP; type: in vivo, mouse; conditions: 5 nmol/kg body weight intraperitoneal, 8-week-old m/m mice
Method: Six-week-old C57BLKS/J misty male mice (m/m mice, Oriental Yeast Co., Ltd.) were transferred (room temperature: 23° C., humidity: 55±10%, light period: 7:00 to 19:00) and were fed with food and water ad libitum. The food was CE-2 (CLEA Japan, Inc.), and the mice were acclimated for 2 weeks under the above-mentioned environment and were then used for testing.
Mouse-derived GIP (manufactured by AnaSpec, Inc.) was dissolved in physiological saline at a concentration of 500 nM to give a GIP solution.
Physiological saline (control group) or the GIP solution (5 nmol/kg body weight) (GIP administration group) was intraperitoneally administered to mice (8-week-old) in the light period (9:00 to 10:00 a.m.). Before the administration and 0.5, 2, 4.5, and 8 hours after the administration, a probe was inserted into the rectum of each mouse to measure the body temperature (rectal temperature).
The rectal temperature was measured with a digital rectal thermometer (NS-TC10, manufactured by NeuroScience, Inc.). According to Jikken Dobutsu Handobukku (Handbook of Experimental Animals) (Yokendo CO. Ltd., published in 1983), each mouse was retained under no anesthesia, and the tip of a probe (RET-3 (19×0.7 mm shaft diameter), manufactured by Physitemp instruments, LLC) was then inserted into the rectum of the mouse by 0.5 to 1 cm to measure for 15 to 30 seconds. […]

[3] = tested on: C57BL/6J male mice fed high fat diet; test: Suppression of decrease in body temperature in mouse continuously taking in high fat diet; type: in vivo; conditions: in high fat diet for 26 weeks, measured at 34-week-old, compared to high fat diet control group
Method: Seven-week-old C57BL/6J male mice (CLEA Japan, Inc.) were transferred (room temperature: 23° C., humidity: 55±10%, light period: 7:00 to 19:00) and were fed with food and water ad libitum. The mice were acclimated using CE-2 (CLEA Japan, Inc.) as food for 1 week and were then grouped such that the body weights of each group were equivalent to each other and were fed with a normal diet containing 5% lipid (normal diet group), high fat diet containing 30% lipid (triacylglycerol) (high fat diet group), high fat diet containing 0.4% 4-hydroxybenzoic acid (2-bromobenzylidene) hydrazide (4H2BH, produced by the method described in Ling, et al., J. Med. Chem. 44: 3141-9, 2001) (4H2BH addition group), or high fat diet containing diacylglycerol (JP-A-2006-342084) instead of 30% triacylglycerol (DAG substitution group) for 26 weeks (34-week-old). During the breeding period, the body weight was measured once a week, and the food intake amount was measured twice a week. During the breeding period, the intake of the food and water was free. A probe was inserted into the rectum of each mouse at 34-week-old to measure the body temperature (rectal temperature).
as §1

GIP(3-42) = target: T1, GIP(3-42) (Homo sapiens, UniProt P09681); test: Cross-reactivity with inactive GIP by sandwich ELISA; type: binding; conditions: biotinylated antibody 1 μg/mL as detection antibody, GIP 8.2 to 2000 pg/mL
T1 sequence (P09681 54-93): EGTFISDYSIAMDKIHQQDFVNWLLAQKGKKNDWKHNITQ
Method: (§2) The reactivity between the monoclonal antibody prepared in Production Example 1 and active GIP was confirmed by ELISA. The amino group of the anti-active GIP monoclonal antibody was biotinylated with NH2 group biotinylation kit (manufactured by Dojindo Laboratories). ELISA was performed using the produced biotinylated anti-active GIP monoclonal antibody at 1 μg/mL instead of a detection antibody, GIP detection antibody (biotinylated anti-total GIP monoclonal antibody), included in Human (total) GIP ELISA kit (manufactured by EMD Millipore Corporation). A […] dilution series of GIP(1-42) or GIP(3-42) was prepared in 6 steps (8.2 to 2000 pg/mL) with a 2000 pg/mL solution as the highest concentration. By using an anti-total GIP monoclonal antibody (included in Human GIP (total) ELISA kit manufactured by EMD Millipore Corporation) as a capture antibody, the biotinylated anti-active GIP monoclonal antibody as a detection antibody, and a peroxidase-streptavidin conjugate for detection, sandwich ELISA was conducted to prepare a calibration curve with GIP concentration on the X-axis and 450 nm-590 nm absorbance on the Y-axis (FIG. 1).

GIP(1-42) = target: T2, GIP(1-42) (Homo sapiens, UniProt P09681); test: Reactivity with active GIP by sandwich ELISA; type: binding; conditions: biotinylated antibody 1 μg/mL as detection antibody, GIP 8.2 to 2000 pg/mL
T2 sequence (P09681 52-93): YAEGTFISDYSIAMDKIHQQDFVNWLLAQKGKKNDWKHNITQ
Method: as §2

GIP(3-42) (inactive GIP) = target: T3, GIP(3-42) (inactive GIP); test: sandwich ELISA; anti-total GIP monoclonal antibody as capture, biotinylated anti-active GIP antibody at 1 ug/mL as detector
T3 peptide: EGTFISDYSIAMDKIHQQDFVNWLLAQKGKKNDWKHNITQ
Method: as §2, with “NH₂” for “NH2”

[4] = tested on: C57BL/6J male mice (107-week-old); test: Suppression of decrease in body temperature by anti-GIP antibody in aged mouse; type: in vivo; conditions: aged C57BL/6J mice, 0.5 mg/kg intraperitoneal once a week for 8 weeks
Method: Four-week-old C57BL/6J male mice (CLEA Japan, Inc.) were transferred (room temperature: 23° C., humidity: 55±10%, light period: 7:00 to 19:00) and were fed with food (D12450K, Research Diets, Inc.) and water ad libitum for 111 weeks.
The anti-active GIP antibody produced in Production Example 1 was dissolved in physiological saline at a concentration of 0.05 mg/mL to give an anti-GIP antibody solution.
Physiological saline (control group) or the anti-GIP antibody solution (0.5 mg/kg body weight) (anti-GIP antibody administration group) was intraperitoneally administered to C57BL/6J mice (107-week-old) once a week (9:00 to 10:00 a.m.). The administration period was 8 weeks, and the probe was inserted into the rectum of each mouse chronologically (at 2 to 4 weeks intervals) to measure the body temperature (rectal temperature).
The rectal temperature was measured with a digital rectal thermometer (NS-TC10, manufactured by NeuroScience, Inc.). According to Jikken Dobutsu Handobukku (Handbook of Experimental Animals) (Yokendo CO. Ltd., published in 1983), each mouse was retained under no anesthesia, and the tip of a probe (RET-3 (19×0.7 mm shaft diameter), manufactured by Physitemp instruments, LLC) was then inserted into the rectum of the mouse by 0.5 to 1 cm to measure for 15 to 30 seconds.
The analysis results were shown as the average value (Ave.)±standard error (SE). […]

[5] = target: T4, PEGylated N-terminus 13 amino acids of inactive GIP (GIP(3-15)) (also: PEGylated, site not given here); test: ELISA on immobilized antigen, hybridoma culture supernatant
T4 construct: Immobilized for the ELISA; also called antigen (2) for measurement; PEGylated GIP(3-15)
T4 peptide: EGTFISDYSIAMD
Method: (§3) The reaction between the hybridoma culture supernatant and the antigen (1) and (2) for measurement was evaluated by ELISA using immobilized antigen (1) and (2), and hybridomas that are positive for the antigen (1) and negative for the antigen (2) were selected as anti-active GIP monoclonal antibody-producing hybridomas.

[6] = target: T5, PEGylated N-terminus 15 amino acids of active GIP (GIP(1-15)) (also: PEGylated, site not given here); test: as above
T5 construct: Immobilized for the ELISA; also called antigen (1) for measurement; PEGylated GIP(1-15)
T5 peptide: YAEGTFISDYSIAMD
Method: as §3

GIP: Mouse-derived GIP (gastric inhibitory polypeptide, manufactured by AnaSpec, Inc.) dissolved in physiological saline at 500 nM (YAEGTFISDYSIAMDKIRQQDFVNWLLAQRGKKSDWKHNITQ)
chronic change in body temperature (rectal) compared to the control group [1]: chronic decrease in the body temperature was observed | decrease in the body temperature (rectal) compared to the control group ([2]; after 2 hours): 0.83 °C | decrease in the body temperature (rectal) compared to the control group ([2]; after 4.5 hours): 0.81 °C

O=C(NN=Cc1ccccc1Br)c1ccc(O)cc1 [4H2BH, 4-hydroxybenzoic acid (2-bromobenzylidene) hydrazide]
decrease in body temperature (rectal) due to high fat diet intake [3]: suppressed

B1: anti-active GIP monoclonal antibody produced by hybridoma 9B9H5-B9 line (Production Example 1) (antibody, V domains shown)
VH: QVQLQQPGAELVKPGASVKLSCKASGYTFTSFWMHWVIQRPGQGLEWIGEMNPSDGRTHFNEKFKTKATLTIDTSSNTAYMELNSLTSEDSAVYYCARRMEDWGQGTLVTVSA
VL: DIKMTQSPSSMYASLGERVTITCKASQDINSYLGWFQQKPGKSPKTLIYGANRLVDGVPSRFSGSGSGQDYSLTISSLEYDDMGIYYCLQYDEFPLTFGAGTKLELKR
notes: in the screening and cloning ELISA it was hybridoma culture supernatant; also called anti-active GIP antibody
cross-reactivity with GIP(3-42) (450 nm-590 nm absorbance) (GIP(3-42)): does not show cross-reactivity with GIP(3-42) | reactivity with GIP(1-42) (450 nm-590 nm absorbance) (GIP(1-42)): capable of specifically detecting GIP(1-42) | binding result (GIP(3-42) (inactive GIP)): no binding (tested: 2000 pg/mL (highest GIP concentration)) | body temperature (rectal) compared to the control group and the non-administration group [4]: significantly high | decrease in the body temperature with aging [4]: suppression of a decrease in the body temperature with aging was observed | binding result [5]: no binding | binding result [6]: binds
